For assay [1], the target named is T1, recombinant human ALK2 extracellular domain (Creative Biomart catalog number ACVR1-01H) (human, UniProt Q04771 21-123).
T1 construct: also called ALK2 ECD; ACVR1 ECD
T1 sequence: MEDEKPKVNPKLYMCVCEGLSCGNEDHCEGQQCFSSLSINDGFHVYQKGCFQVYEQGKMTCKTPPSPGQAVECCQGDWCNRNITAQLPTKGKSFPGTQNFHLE
Briefly: SPR (Biacore), antibody captured, ALK2 ECD as analyte.

Assay [2] deals with T1, recombinant human ALK2 extracellular …. Briefly: SPR (Biacore), JAB0481 captured at low density on anti-mouse IgG chip, ALK2 ECD as analyte, 1:1 Langmuir fit. As to the method: (§1) Anti-mouse IgG was immobilized on carboxymethylated dextran BiaCore sensor chips (CMS, GE Biosciences) using a Mouse Antibody Capture Kit (GE Lifesciences product number BR100838). Two sensors were prepared; one for a “low” density of JAB0481 captured on the sensor and one with a “high” density of JAB0481 captured on the sensor. JAB0481 was diluted to 0.05 mg/ml in HEPES EDTA surfactant buffer (HBS-EP), pH 7.4 and injected onto the mouse antibody capture sensors. The volume of JAB0481 solution injected for the “low” density condition was […], and the volume that was used for the “high” density condition was 30 μL.
(§2) The ALK2 ECD was diluted in HBS-EP buffer and injected over the JAB0481 captured sensors at concentrations ranging from 2000 nM to 250 nM followed by a 300 second association period. This was followed by the injection of HBS-EP buffer and a 500 second dissociation period. Relative response deflection was plotted against time and the data were fitted to curves according to the Langmuir 1:1 binding kinetic model.
(§3) The sensorgrams for the binding of the ALK2 ECD to JAB0481 at low surface density is provided in FIG. 9, while the sensorgrams for the binding of the ALK2 ECD to JAB0481 at high surface density is provided in FIG. 10. Table 2 provides the association and dissociation rates, the dissociation constant, and Chi squared values calculated from the Biacore binding data.

Assay [3] addresses T2, mouse ALK2 expressed on the cell surface of wild-type C2C12 mouse myoblast cells (mouse, UniProt P37172 21-509).
T2 construct: Endogenous ALK2 of C2C12 cells (ATCC CRL-1772); also called murine ALK2; ALK2 on C2C12 cells
T2 sequence: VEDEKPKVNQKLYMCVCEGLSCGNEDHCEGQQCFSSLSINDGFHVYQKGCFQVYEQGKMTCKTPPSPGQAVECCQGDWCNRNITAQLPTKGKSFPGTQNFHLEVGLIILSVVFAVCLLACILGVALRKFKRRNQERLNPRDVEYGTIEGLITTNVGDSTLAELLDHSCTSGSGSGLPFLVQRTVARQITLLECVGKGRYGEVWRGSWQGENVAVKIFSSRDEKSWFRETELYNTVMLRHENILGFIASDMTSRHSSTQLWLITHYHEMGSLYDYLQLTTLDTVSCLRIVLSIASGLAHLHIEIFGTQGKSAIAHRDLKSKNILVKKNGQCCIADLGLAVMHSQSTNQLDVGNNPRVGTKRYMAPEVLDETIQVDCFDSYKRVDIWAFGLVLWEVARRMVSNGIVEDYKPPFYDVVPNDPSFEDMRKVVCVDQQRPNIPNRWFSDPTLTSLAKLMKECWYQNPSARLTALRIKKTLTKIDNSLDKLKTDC
In words: flow cytometry on wild-type C2C12 cells, antibody 2.45 to 5,000 ng/mL and 0 ng/mL, detected with AF488 donkey anti-mouse IgG. As to the method: Anti-ALK2 antibodies were evaluated for binding to ALK2 expressed on the cell surface of mouse myoblast cells (C2C12; ATCC CRL-1772) by flow cytometry. The expression of ALK2 in wild-type C2C12 cells was confirmed by RT-qPCR and by observing the binding of commercially available polyclonal anti-ALK2 antibodies to the cells by flow cytometry (data not shown). […] Loss of ALK2 expression was verified by flow cytometry and genomic sequencing (data not shown).
Wild-type and ALK2 knock-out C2C12 cells were detached from culture flasks using AssayComplete™ Cell Detachment Reagent (DiscoverX) which was used to maintain intact cell membrane morphology. Cells were washed twice with PBS and then re-suspended in PBS. […] Cells were washed once in FACS buffer (5% bovine serum albumin, […] in PBS) re-suspended in blocking buffer (6% BSA in PBS) and incubated on wet ice for 15 minutes. The binding of the anti-ALK2 antibodies to cells was detected with a 1:100 dilution of Alexa Fluor488-conjugated donkey anti-mouse IgG (ThermoFisher catalog number A21202). Cells were then washed twice in FACS buffer, re-suspended in FACS buffer and the binding of anti-ALK2 antibodies determined by flow cytometry using a DxP6 flow cytometer (Cytek).

The target of assay [4] is T3, ALK1-Fc (R&D Systems catalog number 370-AL-100) (human, UniProt P37023 22-118).
T3 construct: extracellular domain; Bought; also called recombinant ALK1-Fc; paralog ALK1; not shown: Fc part (loaded on anti-human Fc tips)
T3 sequence (P37023 22-118): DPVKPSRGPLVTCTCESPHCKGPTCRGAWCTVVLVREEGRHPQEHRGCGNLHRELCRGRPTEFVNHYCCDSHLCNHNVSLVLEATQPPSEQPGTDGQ
Briefly: bio-layer interferometry (Octet): ALK1-Fc captured on anti-human Fc tips, antibody in solution at 10 ug/mL. As to the method: ALK2-Fc (R&D Systems), ALK2-Fc (Sino Biological catalog number 10227-H03H), and ALK1-Fc (R&D Systems catalog number 370-AL-100) were diluted to 10 μg/mL in 1× kinetics buffer (ForteBio) and loaded onto anti-human Fc tips (ForteBio). After baseline equilibration in kinetics buffer (ForteBio), the sensors were applied to solutions of antibodies JAB0399, JAB0481, and BB5.1 (isotype control mAb) diluted to 10 μg/ml in kinetics buffer. The sensors were then applied to antibody-free kinetics buffer to measure antibody dissociation.

In assay [5] the target is T1, recombinant human ALK2 extracellular …. Briefly: SPR (Biacore), JAB0481 captured at high density on anti-mouse IgG chip, ALK2 ECD as analyte, 1:1 Langmuir fit. As to the method: as §1, §2, §3
The target of assay [6] is T2, mouse ALK2 expressed on the cell …. Briefly: cell-based or functional assay.

Positions count from the first letter of the chain named.

B1: JAB0481 (antibody, mouse IgG1, kappa)
heavy: EVQLQQSGAELVRPGASVRLSCTASGFNIKDSLMHWVKQRPEQGLEWIGWIDPEDGETKYAPNFQDKATITAVTSSNTAYLQLSSLTSEDSAIYYCARYTSDYYTMDYWGQGTSVTVSSAKTTPPSVYPLAPGSAAQTNSMVTLGCLVKGYFPEPVTVTWNSGSLSSGVHTFPAVLQSDLYTLSSSVTVPSSTWPSQTVTCNVAHPASSTKVDKKIVPRDCGCKPCICTVPEVSSVFIFPPKPKDVLTITLTPKVTCVVVDISKDDPEVQFSWFVDDVEVHTAQTKPREEQINSTFRSVSELPIMHQDWLNGKEFKCRVNSAAFPAPIEKTISKTKGRPKAPQVYTIPPPKEQMAKDKVSLTCMITNFFPEDITVEWQWNGQPAENYKNTQPIMDTDGSYFVYSKLNVQKSNWEAGNTFTCSVLHEGLHNHHTEKSLSHSPGK
light: DIQMTQSPASQSASLGESVTFTCLASQTIGTWLAWYQQKPGKSPQLLIYAATSLADGVPSRFSGSGSGTKFSFKISSLQAEDFASYYCQQLYSTPWTFGGGTKLEIKRADAAPTVSIFPPSSEQLTSGGASVVCFLNNFYPKDINVKWKIDGSERQNGVLNSWTDQDSKDSTYSMSSTLTLTKDEYERHNSYTCEATHKTSTSPIVKSFNRNEC
notes: Murine IgG1/kappa; also called antibody JAB0481; parent mAb JAB0481
Consider B1, for which the values for the Kd in assay [1], in assay [2] and in assay [5] were 132 nM, 155 nM and 72.7 nM, respectively. Moreover, the koff in assay [1] was 0.00516 s⁻¹; in assay [2], 0.00833 s⁻¹; in assay [5] it was 0.00467 s⁻¹. The kon amounted to 39100 M⁻¹ s⁻¹ in assay [1], 53600 M⁻¹ s⁻¹ in assay [2] and 64200 M⁻¹ s⁻¹ in assay [5]. Moreover, the values for the binding result in assay [3] and in assay [4] were “binds” and “no binding (tested: 10 ug/mL)”, respectively.

B2: JAB0399 (antibody, mouse IgG1, kappa)
heavy: B1 heavy with S134F
light: B1 light
notes: Murine IgG1/kappa mAb from phage library; also called antibody JAB0399; mAb JAB0399
B2: the binding result in assay [4] was “no binding (tested: 10 ug/mL)”.

B3: JAB0505 (antibody, mouse IgG1, kappa, V domains shown)
VH: EVQLQQSGAELVRPGASVRLSCTASGFNIKDSLMHWVKQRPEQGLEWIGWIDPEDGETRYAPNFQDKATITAVTSSNTAYLQLSSLTSEDSAIYYCARYTSRYYTMEYWGQGTSVTVSS
VL: DIQMTQSPASQSASLGESVTFTCLASQTIGTWLAWYQQKPGKSPQLLIYAATSLADGVPSRFSGSGSGTKFSFKISSLQAEDFASYYCQQLYWTPWTFGGGTKLEIKR
notes: also called antibody JAB0505
Consider B3, for which, in assay [1], the Kd was 20.8 nM, the koff is 0.000839 s⁻¹ and the kon stood at 40300 M⁻¹ s⁻¹. For the same molecule, in assay [6], the “IC50, BRE-luciferase reporter assay in C2C12 cells stimulated with BMP9” value was determined as 0.139 nM.

B4: JAB0501 (antibody, mouse IgG1, kappa, V domains shown)
VH: B3 VH with R59K, D66S, R102P, E107D
VL: B3 VL with L91V, W93S
Consider B4, for which, in assay [1], the Kd was determined as 24.5 nM, the dissociation rate constant (koff) was 0.000929 s⁻¹ and the kon is 37900 M⁻¹ s⁻¹. For the same molecule, in assay [6], the “IC50, BRE-luciferase reporter assay in C2C12 cells stimulated with BMP9” value is 0.204 nM.

The values above are taken from US20220098310A1 (Alexion, published 2022).
